± gives the standard deviation.
Assay: protein stability index of a GFP-peptide fusion (GPS, HEK-293T) (PSI 1-6); higher = more stable
[1] = treatment: DMSO, c terminus: a fixed tail appended
[2] = treatment: MLN4924 1 uM, 8 h, c terminus: a fixed tail appended
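Note: 24-mer peptide tiles fused after GFP, lentivirally expressed, FACS-sorted into six equal bins by GFP/DsRed ratio, decoded by Illumina sequencing, PSI is the read-weighted mean bin number.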

QKQLEQTLQQFNIKLRPPGAEKPS [ARFIP2]
protein stability index [1]: 3.92 ± 0.098 | protein stability index [2]: 4.07 ± 0.19

KVHRARKTMPKSVVGLHAASKDPR [EHMT1]
protein stability index [1]: 4.1 ± 0.16 | protein stability index [2]: 4.08 ± 0.31

QVATSPDFDGKLKDIAGEFKEQLQ [ATL3]
protein stability index [1]: 4.34 ± 0.35 | protein stability index [2]: 4.32 ± 0.38

AVVKGIQSSGKVMYFSSLFPYVVL [SLC6A17]
protein stability index [1]: 3.09 ± 0.49 | protein stability index [2]: 2.51 ± 0.028

QIMKEGKATASEAVDCKWYIRAPP [NETO1]
protein stability index [1]: 3.24 ± 0.086 | protein stability index [2]: 3.24 ± 0.2

FRNLVADRVLNYTSWSQHCPWEPQ [SPAG8]
protein stability index [1]: 2.21 ± 0.21 | protein stability index [2]: 2.36 ± 0.23

MPTGPPEDRLSLKFLPSSEEDNDD [DRICH1]
protein stability index [1]: 5.47 ± 0.2 | protein stability index [2]: 5.59 ± 0.15

AVLTTHHHWDHARGNPELARLRPG [HAGHL]
protein stability index [1]: 3.28 ± 0.17 | protein stability index [2]: 3.4 ± 0.34

THHKLCTFILKNPPENSDSGTGKK [EIF5]
protein stability index [1]: 3.95 ± 0.27 | protein stability index [2]: 4.28 ± 0.18

EIIKVTEQLIEAISNGDFESYTKM [CAMK2A]
protein stability index [1]: 2.27 ± 0.53 | protein stability index [2]: 1.91 ± 0.61

SPVVVEKSNSYPHQLYTSSSHHSH [KMT2E]
protein stability index [1]: 3.76 ± 0.1 | protein stability index [2]: 3.82 ± 0.38

IHFIAVAVCLLGVGTMVGADILAG [SLC35F2]
protein stability index [1]: 2.8 ± 0.18 | protein stability index [2]: 3.31 ± 0.45

FICQATGDPRPKIVWNKKGKKVSN [PTPRD]
protein stability index [1]: 2.84 ± 0.37 | protein stability index [2]: 3.35 ± 0.68

KVALEPQLWELGKVLRKAGLSAGY [LPCAT4]
protein stability index [1]: 2.27 ± 0.26 | protein stability index [2]: 2.21 ± 0.36

YETVAAATSESTTVEPGKLDVGAT [DRICH1]
protein stability index [1]: 5.36 ± 0.2 | protein stability index [2]: 5.43 ± 0.32

SFSTAIGRTCITDLQLTVGGAQAS [MFSD9]
protein stability index [1]: 2.5 ± 0.33 | protein stability index [2]: 2.34 ± 0.3

IDQWSMLGDMQTAREGAGLVVASG [KLHL12]
protein stability index [1]: 3.36 ± 0.15 | protein stability index [2]: 3.52 ± 0.051

LSWFILHARYRVIHFIAVAVCLLG [SLC35F2]
protein stability index [1]: 2.49 ± 0.12 | protein stability index [2]: 2.83 ± 0.91

REFSFTLKDDIYIRYQSFNNQSDL [PRIM1]
protein stability index [1]: 2.26 ± 0.084 | protein stability index [2]: 2.22 ± 0.41

LHDRGAQVIHPQEFRRWRDTGVAF [DNAAF3]
protein stability index [1]: 2.83 ± 0.2 | protein stability index [2]: 2.99 ± 0.38

LSRDTVQESYENVDSLESHIPSQE [ZNF263]
protein stability index [1]: 5.26 ± 0.13 | protein stability index [2]: 5.41 ± 0.13

PKGWRQLAQEAEAWLNYPCFKNWD [OAS1]
protein stability index [1]: 2.72 ± 0.23 | protein stability index [2]: 2.82 ± 0.18

TDRRSFHEVREFKQLIYRVRRTDD [RIT1]
protein stability index [1]: 3.03 ± 0.085 | protein stability index [2]: 3.12 ± 0.14

SEGLHLAGTAGHPPSGSQPLTSTQ [FBF1]
protein stability index [1]: 5.07 ± 0.17 | protein stability index [2]: 4.96 ± 0.23

GLLNDTSAPHLENSGHTIFNDPFF [KCNA4]
protein stability index [1]: 4.17 ± 0.19 | protein stability index [2]: 4.28 ± 0.28

IDNANRILGPAYFVTYVFFVFFVL [PKD2L1]
protein stability index [1]: 2.67 ± 0.71 | protein stability index [2]: 2.67 ± 0.6

PGARTRAGAARVARWRRLRLQQLR [FBXO33]
protein stability index [1]: 4.12 ± 0.28 | protein stability index [2]: 4.51 ± 0.26

IVKKPKSMQCKVILLDGSEYTCDV [EPB41L3]
protein stability index [1]: 1.93 ± 0.24 | protein stability index [2]: 2.23 ± 0.69

TPLLAASVTGHTNIVEYLIQEQPG [FEM1A]
protein stability index [1]: 3.39 ± 0.17 | protein stability index [2]: 3.67 ± 0.32

RHNALLSKRLLALTSSDLGCQPSR [TMEM192]
protein stability index [1]: 2.97 ± 0.13 | protein stability index [2]: 3.14 ± 0.38

TDKQPLSDAWTYCISKNEWIQFNH [KLHDC2]
protein stability index [1]: 2.5 ± 0.2 | protein stability index [2]: 2.67 ± 0.27

WLQNTHVYSWPKNKKNILLRLLRE [TRAF3IP2]
protein stability index [1]: 2.08 ± 0.58 | protein stability index [2]: 2.38 ± 0.42

VGDALEEVLSKALSQRTITVGVYE [GADD45A]
protein stability index [1]: 2.54 ± 0.19 | protein stability index [2]: 2.47 ± 0.56

WPGASGSAQSLDRLGIMGAGLGA [ATP23]
protein stability index (treatment: DMSO, c terminus: native): 2.55 ± 0.26 | protein stability index (treatment: MLN4924 1 uM, 8 h, c terminus: native): 2.43 ± 0.37

SQTEAHYSCQSKEILRYMKEFTLL [P2RY14]
protein stability index [1]: 2.21 ± 0.15 | protein stability index [2]: 2.3 ± 0.23

MAETVADTRRLITKPQNLNDAYGP [SNX3]
protein stability index [1]: 3.95 ± 0.25 | protein stability index [2]: 4.17 ± 0.15

DSKIVVPPLPGKALKRQLPFRGDE [SNX12]
protein stability index [1]: 4.35 ± 0.21 | protein stability index [2]: 4.36 ± 0.1

HVHCFTCAACKTPIRNRAFYMEEG [PDLIM7]
protein stability index [1]: 2.24 ± 0.11 | protein stability index [2]: 2.47 ± 0.23

SDGRTFLSRCEFQRAKCKDPQLEI [SMOC2]
protein stability index [1]: 2.95 ± 0.42 | protein stability index [2]: 2.93 ± 0.33

VAALVVNFSQPVAGRPSLLRHDEV [NLN]
protein stability index [1]: 2.46 ± 0.49 | protein stability index [2]: 2.48 ± 0.36

FSEPSFITESYQTLHPISSEELLS [ETS1]
protein stability index [1]: 2.77 ± 0.4 | protein stability index [2]: 3.28 ± 0.41

RPENRSFYLALYKQMSFLEKRGCP [TCF25]
protein stability index [1]: 2.12 ± 0.3 | protein stability index [2]: 2.19 ± 0.34

EELAKKRFKDKSSEEAVREVHRLI [TPPP]
protein stability index [1]: 3.54 ± 0.24 | protein stability index [2]: 3.41 ± 0.27

ALGAMWKLHKSQLSQALNGLSDRA [TRIM9]
protein stability index [1]: 2.21 ± 0.29 | protein stability index [2]: 2.34 ± 0.35

RRHCPLPQATFWGLVTPRSWSCHT [SOAT2]
protein stability index [1]: 2.46 ± 0.4 | protein stability index [2]: 2.25 ± 0.17

RWSSDLNKHLTTHQGIKPYKCSWC [ZNF75A]
protein stability index [1]: 2.55 ± 0.45 | protein stability index [2]: 2.73 ± 0.49

ECQLYPRRSQQQQVPVVDFQAELR [SNURF]
protein stability index [1]: 4.3 ± 0.18 | protein stability index [2]: 4.31 ± 0.084

HKPKNSEELYKEIDGVATTRYSVA [PTPRD]
protein stability index [1]: 4.43 ± 0.17 | protein stability index [2]: 4.66 ± 0.21

AALGSRGSCSTEVEKETQEKMTIL [ATP6V1G1]
protein stability index [1]: 2.52 ± 0.47 | protein stability index [2]: 2.52 ± 0.55

ENAAFKDVALVLTVLLEEETLEAS [TOR1AIP2]
protein stability index [1]: 2.31 ± 0.33 | protein stability index [2]: 2.4 ± 0.34

RQGIQLNKTPGAPESSALQPPPQS [WAS]
protein stability index [1]: 4.74 ± 0.6 | protein stability index [2]: 4.8 ± 0.094

ESSAKSKINVNEIFYDLVRQINRK [RAP1B]
protein stability index [1]: 1.92 ± 0.38 | protein stability index [2]: 1.96 ± 0.25

EDEGVDLSEGSSNEDEDLGPCEGP [SPANXN3]
protein stability index [1]: 5.39 ± 0.44 | protein stability index [2]: 5.41 ± 0.23

EYAWCLVRSKYNDDIRKGIVLLEE [FIS1]
protein stability index [1]: 2.13 ± 0.43 | protein stability index [2]: 2.03 ± 0.26

TRLYLRSHRPNMELCRDAAQFRLL [TEKT4]
protein stability index [1]: 2.16 ± 0.44 | protein stability index [2]: 2.27 ± 0.32

DFALHYCLHHVHYLATEYLETHFR [GAN]
protein stability index [1]: 3.08 ± 0.24 | protein stability index [2]: 3.11 ± 0.23

FRAGMKKEAVQNERDRISTRRSSY [HNF4A]
protein stability index [1]: 4.2 ± 0.21 | protein stability index [2]: 4.17 ± 0.22

TLGGLNPSPSEVITPWTPSPSEKN [SMTNL2]
protein stability index [1]: 5.21 ± 0.25 | protein stability index [2]: 5.08 ± 0.14

SQMSPLSLYGENSNSLSSAEPLKE [ATF6]
protein stability index [1]: 5.01 ± 0.3 | protein stability index [2]: 5.03 ± 0.22

QRQQLPVTFGNKQKVLGKALSLIR [BTBD1]
protein stability index [1]: 2.81 ± 1 | protein stability index [2]: 2.2 ± 0.41

NAESSKTWLKGKFTELRLLLDEEE [TRIM14]
protein stability index [1]: 4.14 ± 0.34 | protein stability index [2]: 4.41 ± 0.47

ESPRWLYSQGRLSEAEEALYLIAK [SLC22A15]
protein stability index [1]: 2.75 ± 0.21 | protein stability index [2]: 2.66 ± 0.45

PHHHSFYDFIVTKARGKSGPLFNF [FAM50A]
protein stability index [1]: 2.29 ± 0.29 | protein stability index [2]: 2.22 ± 0.16

NIQIIEYEKKQTLGQNDTGFSCDG [BTBD1]
protein stability index [1]: 4.36 ± 0.4 | protein stability index [2]: 4.034 ± 0.016

VENGDFNWIVPGKFLAFSGPHPKS [CDC14A]
protein stability index [1]: 2.76 ± 0.41 | protein stability index [2]: 2.92 ± 0.43

Reference: the supplement of paper PMC10567573
